# Results taken from patent US20090104147A1.
# How the values were obtained:
# [1] = target: porcine sialoadhesin (pig) (UniProt A7LCJ3); assay: cell-based or functional assay
# [2] = target: recombinant sialoadhesin expressed on CHO cells (CHO-Sn); assay: cell-based or functional assay
substance,measurement,setting,value
mAb 41D3/saporin conjugate,"% Living cells, primary porcine macrophages, conjugate concentration 0.3*10^-6",[1],30.4%
same,"% Living cells, primary porcine macrophages, conjugate concentration 10^-7",[1],29.3%
same,"MTT assay OD value, primary porcine macrophages, column head 10",[1],0.537 OD
same,"MTT assay OD value, primary porcine macrophages, column head 30",[1],0.541 OD
same,"% Living cells, CHO-Sn cells, conjugate concentration 0.1*10^-6",[2],64.4%
same,"% Living cells, CHO-Sn cells, conjugate concentration 0.25*10^-6",[2],57.1%
same,"% Living cells, CHO-Sn cells, conjugate concentration 0.5*10^-6",[2],64.2%
same,"% Living cells, CHO-Sn cells, conjugate concentration 10^-7",[2],63%
same,"MTT assay OD value, CHO-Sn cells, 25",[2],1.35 OD
same,"MTT assay OD value, CHO-Sn cells, column head 6.25",[2],1.45 OD
same,"MTT assay OD value, CHO-Sn cells, column head 12.5",[2],1.47 OD
same,"MTT assay OD value, CHO-Sn cells, column head 50",[2],1.47 OD
